Assay results published in paper PMC9161741.

Target: T1, TFB2M T313E (human, UniProt Q9H5Q4 21-396, T313E)
T1 sequence: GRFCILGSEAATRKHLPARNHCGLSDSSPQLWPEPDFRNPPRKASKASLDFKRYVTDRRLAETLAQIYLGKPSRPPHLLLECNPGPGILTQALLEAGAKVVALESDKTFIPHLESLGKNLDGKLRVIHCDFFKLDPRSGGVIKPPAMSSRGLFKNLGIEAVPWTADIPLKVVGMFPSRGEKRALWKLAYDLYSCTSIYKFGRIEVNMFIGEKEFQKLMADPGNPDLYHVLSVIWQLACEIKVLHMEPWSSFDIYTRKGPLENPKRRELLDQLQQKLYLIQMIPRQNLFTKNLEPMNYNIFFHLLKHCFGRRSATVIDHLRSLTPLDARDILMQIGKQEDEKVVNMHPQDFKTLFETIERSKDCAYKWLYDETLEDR
Experiment: fluorescence anisotropy

B1: LSP (-17 to +19), fluorescein (dsDNA)
DNA 1: AAAAGTGCATACCGCCAAAAGATAAAATTTGAAATC
DNA 2: GATTTCAAATTTTATCTTTTGGCGGTATGCACTTTT
Kd: > 150 nM
